# B1: pRNA-HER2apt-siMED1: 3-WJ pRNA nanoparticle bearing a HER2-targeting RNA aptamer and two different MED1 siRNAs; strands p1 SEQ ID NO: 3, p2 SEQ ID NO: 4 (nucleic acid)
# chain 1: GGACAGUGAAAGUGAGUCAAAGGAUCAAUCAUGGCCAAAGAUGUUACUUUGAGAGCCUU
# chain 2: GGCUCUCAAAGUAACAUCUAAGGCCAUGUGUAUGUGGGGGGAGGACGAUGCGGUCUGCUGUGCUUGAUAUGCCCCAGACGACUCGCCCCCCACAUACUUUGUUGAUCCAAUGACUCACUUUCACUGUCCUU
# modifications: 2'-F modification; third strand may lack entry; pRNA-HER2apt-siMED1, p1; pRNA-HER2apt-siMED1, p2
# System: BT474 cells
# Test: MTT assay, BT474 cells
# Assay type: cell-based, human
# Procedure: FIG. 3A) BT474 cells were incubated with 10 μg/mL control and pRNA-HER2apt-siMED1 nanoparticles for 48 h, and MED1 mRNA level was determined by real-time PCR. FIG. 3B) BT474 cells were incubated directly with (as indicated by -) or transfected with indicated pRNAs using lipofectamine 2000. At 48 h post treatment, MED1 protein levels were determined by western blotting. FIG. 3C) BT474 cells were treated with 10 μg/mL pRNA nanoparticles for 48 h and assayed for cell viability by MTT assay. FIG. 3D) Cells were treated as above and seeded for migration, and FIG. 3E) invasion transwell assays. Scale bar: 50 μm. FIG. 3F) After pRNA treatment for 48 h, the mRNA levels of ERα target genes TFF-1, FIG. 3G) c-Myc, and FIG. 3H) cyclin D1 in BT474 cells were determined by real-time PCR.
# FIG. 4A) BT474 cells were treated with pRNA nanoparticles in combination with vehicle or 1 μM 4-hydroxy-tamoxifen (4-OHT) as indicated for 48 h, and assayed for cell viability by MTT assay. […] FIG. 4E) The number of mammospheres was counted, and FIG. 4F) the mammosphere size was calculated. […]
# FIG. 9A) BT474 cells were treated with different concentrations of pRNA nanoparticles as indicated for 48 h. After that, MED1 protein level was determined by western blots, and FIG. 9B) the cell viability was determined by MTT assay. […]
molecule,measurement,setting,value
B1,cell growth (MTT),"BT474, 48 h, nanoparticles alone",dose-dependently inhibited
same,effect on tamoxifen inhibition of cell growth,"BT474, in combination with 1 μM 4-hydroxy-tamoxifen, 48 h",significantly enhanced the inhibitory effects of tamoxifen

# — patent US11110182B2, “Multifunctional RNA nanoparticles and methods for treating cancer and therapeutic resistant cancer” (University of Cincinnati, priority 2016, dated 2021)
